Assay results published in article PMC11349758.

How the values were obtained:
STAT5B = STAT5B (UniProt P42232); test: anti-STAT5A IP, anti-STAT5B blot; conditions: reference: WT T cells, IL-2 stimulated; sites Y694
STAT5A = STAT5A (UniProt P42230); test: anti-STAT5A IP, anti-STAT5B blot; conditions: reference: WT T cells, IL-2 stimulated; sites Y699

Substance | binding against the reference (STAT5B) | binding against the reference (STAT5A)
STAT5A (from UniProt P42230) Stat5a KI (Y694F) T cells, IL-2 stimulated | lost | 
STAT5B (from UniProt P42232) Stat5b KI (Y699F) T cells, IL-2 stimulated |  | lost
